According to patent US20090004212A1, “Tumour vaccines for MUC1-positive carcinomas” (priority 1997, published 2009):
“And” between values parts separate entries of the source, which are not always exact repeats. Equal values may be shown once. No end group written: not given here. O‑glycan = not defined here

B1: A(HGVTSAPESRPAPGSTAPPA)x3 (peptide, listed as Homo sapiens)
chain: AHGVTSAPESRPAPGSTAPPAHGVTSAPESRPAPGSTAPPAHGVTSAPESRPAPGSTAPPA
modifications: Fragment of digested MUC1

Experiments:
[1] = target: T1, human 20S immunoproteasomes (Homo sapiens, UniProt P28062+P28065+P40306); test: In vitro proteolysis of MUC1 repeat peptides and glycopeptides by immunoproteasomes; type: biochemical; conditions: for AVERAGE FRAGMENT LENGTH / NUMBER OF FRAGMENTS: digest by immunoproteasomes; for NUMBER OF FRAGMENTS: HPLC and MALDI-MS; for % of glycopeptide: glycosylated 8- to 11-meric fragments relative to total 8- to 11-mers; for 8-11 mers (%): relative to total amount of digestion products of immunoproteasomal cleavage; for AHG 8 to -11 / PAP8 to -11 / SAP8 to -11: 8- to 11-meric fragments with this N-terminus, % of total 8- to 11-mers
T1 construct: purchased Immatics Biotechnologies (Tübingen, Germany)
Procedure: A 1 mg/ml solution of immunoproteasomes prepared according to a published protocol (20) was purchased from Immatics Biotechnologies (Tübingen, Germany) and stored frozen at −80° C.
Glycopeptides were incubated with 10 μg of human 20S immunoproteasomes (Immatics) for […], at 37° C., in 10 μl of digestion buffer (20 mM HEPES/KOH, pH 7.6 containing 2 mM Mg(CH3COO)2 and 1 mM DTT) as described (13). Digestion was stopped after 24 h by freezing the sample at −80° C. Human cathepsin-L was purchased from Sigma (Munich, Germany) and solubilized in 0.1 M sodium acetate, pH 5.5, containing 1 mM EDTA and 1 mM dithiothreitol (12). About 5 mU of enzyme were added to sialoglycopeptide substrates SGGP1 to SGGP5 (75-100 μM) in a total volume of 20 μl. The reaction mixtures were incubated at 37° C. for 24 h and 1 μl of trifluoroacetic acid was added to stop the reaction. The reaction products were cleaned by solid-phase extraction on ZipTipC18 pipette tips and 0.5 μl aliquots were applied onto the MALDI target for mass spectrometric analysis. Kinetic studies with the non-glycosylated 100-mer P1 were performed under the same conditions and the products were chromatographed on HPLC for purification and quantification.

[2] = tested on: DC2.4 mouse dendritic cells; test: Cellular processing and cross-presentation in mouse dendritic cell line, peptides eluted from exosomal MHC; type: cell-based
Procedure: Poly-lactic acid based vesicles were generated mixing two solutions: Solution A: 200 nmol of P2 peptide (1 mg) resolved in 3% cold water solution of poly-vinyl alcohol; Solution B: 5% poly-lactic acid in a mixture of ethanol and acetone (9:1, v/v). Solution B (30 ml) was slowly added to solution A (150 ml) under constant mixing and stirring overnight at room temperature. The next day the mixture was centrifuged at 10.000×g for 10 min and washed three times with PBS (200 ml), followed by centrifugation steps as mentioned previously. The generated vesicles were resuspended in 330 μl of PBS and added to media of 4×108 DC2.4 mouse dendritic cells growing confluent in nine cell culture flasks (300 cm^2). The cells were grown as usual, but in exosome-depleted medium.
Cells were incubated with PLA-vesicles for 24 h at 37° C. and 5% CO2. The cell culture supernatant was collected and exosomes were isolated by ultracentrifugation (see below). Isolated exosomes were resuspended in 100 μl 0.1% TFA/H2O. Acidification of exosomes denatures tertiary MHC complex and releases bound peptide epitopes. The solution was shortly spun and injected on a HPLC narrow-bore ODS column for separation of eluted peptides and glycopeptides. Fractions were collected manually, dried and analyzed by MALDI-TOF-MS as described. Molecular masses of detected ions were analyzed by the FindPep software and by nanospray ESI-MS/MS analyses.
Exosomes were isolated from FCS or cell culture supernatant by subsequent centrifugation steps: 10 min/1200 g; 30 min/10000×g; 30 min/20.000×g; and 60 min/[…]. The exosomes were pelleted in the final centrifugation step, washed with PBS and used for further analyses. For the depletion of FCS from exosomes, exosomes from serum were pelleted by ultracentrifugation at 110.000×g for 1 h.

HLA-A0201 = target: T2, HLA-A0201 (Homo sapiens, UniProt P04439, D140Y/D185E/D98H/E176V/E277Q/G131W/G231S/I119V/I121R/I166T/I218V/L300P/L318F/N151K/N90K/P208A/P217A/Q86G/Q94H/R138H/R169H/T345S); test: MHC stabilization assay on T2 cells; type: binding; conditions: for ligation strength (binding to HLA-A0201): T2 cells, 100 μg peptide, 16 h, W6/32 antibody, FACS; for change of ligation strength by introduction of GalNAc: glycosylated versus non-glycosylated form
T2 construct: endogenous in cells; host or cells: T2 cell line (TAP-deficient)
Procedure: MHC stabilization assay is based on the increased affinity of HLA-A, -B, -C specific monoclonal W6/32 antibody for the stabilized conformation of MHC molecules after binding of a peptide ligand. The T2 cells express empty MHC molecules with short half-life.
For MHC stabilization assay T2 cells were grown in IMDM medium supplemented with 2% FCS. T2 cells were washed in PBS from the residual serum, and resuspended at 1×10^6/ml of IMDM supplemented with 0.1% FCS and 25 mM HEPES. Half of a million of cells were incubated in 48-well cell culture plate with 1 μg of […]2-microglobulin and 100 μg of peptide for 16 h at 27° C. and 8% CO2. Cells were washed with 5 ml PBS, centrifuged at 180×g for 5 min and the pellet was resuspended in 10 μl PBS containing 1 μg of W6/32 antibody and incubated at 4° C. for 30 minutes.
Subsequently, cells were washed in PBS with 1% BSA (3×5 ml) and the pellet was resuspended in 50 μl of secondary anti-mouse Alexa 488 antibody (1:1000 in PBS with 0.1% BSA), incubated for 30 minutes in the dark, washed with PBS (3×5 ml) and resuspended in 500 μl of PBS. Binding of the W6/32 antibody to MHC class I molecules was analyzed by FACS on the Beckman Coulter ADCXL4C flow cytometer. As a positive control hepatitis B virus core antigen HBVc18-27 P6Y˜C ([…]) was used. As a negative control T2 cells were used, to which no peptide was added.
Relative binding capacities of the peptides were expressed as the percent of the positive control signal (100%), normalized to the negative control (0%). A mean fluorescence that was at least 10% higher than the negative control level was considered positive binding.

T2 target cells = test: CTL activity against peptide-loaded T2 target cells (CFSE/7-AAD); type: cell-based, human; conditions: T2 cells loaded with 10 μg/ml peptide, 6-hour incubation
Procedure: (§1) Peripheral blood mononuclear cells (PBMCs) were isolated from buffy coats of HLA-A*0201 healthy donors by Ficoll-Hypaque (MP Biomedicals, Solon, Ohio) density gradient centrifugation.
(§2) Dendritic cells (DCs) were generated by culturing adherent monocytes for 6 days in AIM-V medium (Invitrogen, Carlsbad, Calif.) supplemented with 500 U/mL granulocyte macrophage colonystimulating factor (GM-CSF, R&D, Minneapolis, Minn.) and 1000 U/mL interleukin (IL)-4 (R&D), and then matured for 48 hours with a cocktail of cytokines consisting of 10 ng/mL of each, tumor necrosis factor (TNF)-alpha, IL-6, IL-1beta (R&D), and 1 μg/mL prostaglandine E2 (Sigma, St. Louis, Mo.). […] DCs pulsed with single peptides were combined, washed, resuspended and used as stimulator cells. They were added to the autologous lymphocyte fraction in 24-well Linbro plates (ICN, Aurora, Ohio) at a ratio of 1:10 at culture initiation and fed in RPMI 1640 media supplemented with 10% human AB serum, 10 ng/ml rhIL-6 (R&D) and 5 ng/ml rhIL-12 (PreproTech, Rocky Hill, N.J.). On day 10 and thereafter every 9 days, T cells were restimulated at a ratio of 1 DC to 20 T cells, in RPMI 1640 media supplemented with 10% human AB serum, rhIL-2 and rhIL-7 (20 U/ml each, R&D).
(§3) Antigen Specificity was Assessed after 4 Stimulations. Three Days Past Each stimulation cell supernatant was collected and IFNy secretion was quantified using OptElA human IFNy ELISA kit (BD). CD8+ T-cells were enriched using magnetic microbeads (human CD8+ T Cell Isolation Kit II from Miltenyi Biotech, Auburn, Calif.) according to the manufacture's instructions and analyzed by flow cytometry for intracellular IFN-gamma and TNF-alpha production after a final 5-hour restimulation with peptide-loaded DCs in the presence of monensin (Golgi Stop, BD; 21). CTL activity was determined 3 days after the last restimulation. […] They were washed, labeled with 5- (and 6)-carboxyfluorescein diacetate succinimidyl ester (CFSE) according to the manufacture's instructions (Immunochemistry, Bloomington, Minn.) and added to a 96-well plate in duplicates at 5000 cells/well. CFSE labeled T2 cells not loaded with peptides were used as controls. CD8+ T effector cells were added at various E:T ratios for a 6-hour incubation at 37° C. Target cell death was detected by adding 7-amino-actinomycin (7-AAD, Immunochemistry) to each well 10 min before data analysis by flow cytometry and analysis was performed according to the manufacture's instructions (22).

CD8+ T-cells = test: IFN-gamma and TNF-alpha production by peptide-primed T-cells; type: cell-based, human; conditions: after last cycle of restimulation, 4 weeks of in vitro culture
Procedure: as §1, §2, §3

Row | Molecule | AVERAGE FRAGMENT LENGTH [1] | NUMBER OF FRAGMENTS [1] | % of glycopeptide [1] | 8-11 mers (%) [1] | class I binding activity [2] | also measured
1 | AHGVTSAPESRPAPGSTAPPA [GP8] (AHGVTS(O‑glycan)APESRPAPGSTAPPA; reading uncertain; also: glycan structure not given here; listed as Homo sapiens) [chemically synthesized MUC1 derived glycopeptide, glycosylation site not readable] | 10.5 | 46 | 21% | 35% |  | 
2 | AHGVTSAPESRPAPGSTAPPA [GP5] (AHGVT(O‑glycan)SAPESRPAPGSTAPPA; not fully specified; reading uncertain; also: glycan structure not given here; listed as Homo sapiens) [MUC1 glycopeptide, glycosylated threonine within the VTS motif] | 11.6 | 46 | 26% | 79% |  | AHG 8 to -11 [1]: 26%; PAP8 to -11 [1]: 47%; SAP8 to -11 [1]: 27%
3 | PESRPAPGS (fragment of MUC1; listed as Homo sapiens) |  |  |  |  | considerable class I binding activity | 
4 | S(-GalNAc)APDTRPAPG ({Ser(GalNAc)}-APDTRPAPG) |  |  |  |  |  | ligation strength (binding to HLA-A0201) (HLA-A0201): strongly reduce binding affinity in comparison with the corresponding nonglycosylated peptide
5 | AHGVTSAPESRPAPGSTAPPA [GP6] (AHGVTSAPES(O‑glycan)RPAPGSTAPPA; reading uncertain; also: glycan structure not given here; listed as Homo sapiens) [MUC1 glycopeptide, glycosylated within the ESR motif] | 10.6 | 46 | 98% and 96% | 35% |  | AHG 8 to -11 [1]: 55%; PAP8 to -11 [1]: 3%; SAP8 to -11 [1]: 42%
6 | ST(-GalNAc)APPAHGVT ({Ser-T(GalNAc)}-APPAHGVT) |  |  |  |  |  | ligation strength (binding to HLA-A0201) (HLA-A0201): strongly reduce binding affinity in comparison with the corresponding nonglycosylated peptide
7 | AHGVTSAPESRPAPGSTAPPA [P4] (fragment of digested MUC1; listed as Homo sapiens) [Peptide P4] | 11.6 | 31 | 0% | 50% |  | 
8 | APESRPAP (fragment of MUC1; listed as Homo sapiens) |  |  |  |  | considerable class I binding activity | 
9 | SAPES(GalNAc)RPAPG [Peptide F3] |  |  |  |  |  | lysis of peptide-pulsed T2 target cells by induced CD8+ T cells (T2 target cells): only minimal increased cell lysis above the background lysis; CD8+ cells producing IFN-γ (CD8+ T-cells): 18.1%; TNF-α production by CD8+ cells (CD8+ T-cells): not TNF-α
10 | HGVTSAPESRPAPGSTAPPA [GP7] | 11.7 | 61 | 40% and 39% | 29% |  | AHG 8 to -11 [1]: 8%; PAP8 to -11 [1]: 31%; SAP8 to -11 [1]: 61%
11 | SAPESRPAPGS (fragment of MUC1; listed as Homo sapiens) |  |  |  |  | considerable class I binding activity | 
12 | STAPPAHGV [STA9] |  |  |  |  |  | ligation strength (binding to HLA-A0201) (HLA-A0201): strongest binders; change of ligation strength by introduction of GalNAc (HLA-A0201): reducing it to the level of the negative control
13 | APESRPAPG (fragment of MUC1; listed as Homo sapiens) |  |  |  |  | considerable class I binding activity | 
14 | SAPESRPAPG (fragment of MUC 1; listed as Homo sapiens) |  |  |  |  | considerable class I binding activity | 
15 | STAPPAHGVT [STA10] |  |  |  |  | considerable class I binding activity | ligation strength (binding to HLA-A0201) (HLA-A0201): strongest binders; change of ligation strength by introduction of GalNAc (HLA-A0201): reducing it to the level of the negative control
16 | PESRPAPGST (fragment of MUC1; listed as Homo sapiens) |  |  |  |  | considerable class I binding activity | 
17 | APESRPAPGS (fragment of MUC1; listed as Homo sapiens) |  |  |  |  | considerable class I binding activity | 
18 | B1 | 17.5 | 105 | 0% | 26% |  | 
